According to US20230272413A1 (UNITED STATES OF AMERICA AS REPRESENTED BY THE SECRETARY OF …, published 2023):

Target: the molecule itself
Assay: SEC-MALS, homodimer

B1: PLRV ^NRTD (other)
chain: KHERFIAYVGIPMLTIQARENDDQIILGSLGSQRMKYIEDENQNYTNISSEYYSQSSMQAVPMYYFNVPKGQWSVDISCEGYQPTSSTSDPHRGRSDGMIAYSNADSDYWNVGEADGVKISKLRNDNTYRQGHPELEINSCHFREGQLLERDATISFHVEAPTDGRFFLVGPAIQKTAKYNYTISYGDWTDRDMELGLITVVLDEHLEGTGSANRVRRPPREGHIYMAS
notes: Selenomethionine-labeled protein was used for phasing; also called Potato leafroll virus ^NRTD; WT PLRV ^NRTD
binding result: binds
